Read-outs that look alike come from different tables or passages of the source.
Assays:
Test in all cases: cell-based or functional assay
[1] = biological target: HIV-1 Env of pseudovirus X2088 (HIV-1)
[2] = biological target: HIV-1 Env of pseudovirus Du422 (HIV-1)
[3] = biological target: HIV-1 Env of pseudovirus T257 (HIV-1)
[4] = biological target: HIV-1 Env of pseudovirus JRCSF (HIV-1) (UniProt P20871)
[5] = biological target: HIV-1 Env of pseudovirus 3817 (HIV-1)
[6] = biological target: HIV-1 Env of pseudovirus ZM106 (HIV-1)
[7] = biological target: HIV-1 Env of pseudovirus 278 (HIV-1)
[8] = biological target: HIV-1 Env of pseudovirus THRO (HIV-1)
[9] = biological target: HIV-1 Env of pseudovirus pCNE8 (HIV-1)
[10] = biological target: HIV-1 Env of pseudovirus PV0 (HIV-1)
[11] = biological target: HIV-1 Env of pseudovirus ZM197 (HIV-1)
[12] = biological target: HIV-1 Env of pseudovirus X1632 (HIV-1)
[13] = biological target: HIV-1 Env of pseudovirus BG505 (HIV-1)
[14] = biological target: HIV-1 Env of pseudovirus SF162 (HIV-1) (UniProt P19550)
[15] = biological target: HIV-1 Env of pseudovirus X2088 (HIV-1); remark: listed apart in the source
[16] = biological target: HIV-1 Env of pseudovirus Du422 (HIV-1); remark: listed apart in the source
[17] = biological target: HIV-1 Env of pseudovirus T257 (HIV-1); remark: listed apart in the source
[18] = biological target: HIV-1 Env of pseudovirus JRCSF (HIV-1) (UniProt P20871); remark: listed apart in the source
[19] = biological target: HIV-1 Env of pseudovirus 3817 (HIV-1); remark: listed apart in the source
[20] = biological target: HIV-1 Env of pseudovirus ZM106 (HIV-1); remark: listed apart in the source
[21] = biological target: HIV-1 Env of pseudovirus 278 (HIV-1); remark: listed apart in the source
[22] = biological target: HIV-1 Env of pseudovirus THRO (HIV-1); remark: listed apart in the source
[23] = biological target: HIV-1 Env of pseudovirus pCNE8 (HIV-1); remark: listed apart in the source
[24] = biological target: HIV-1 Env of pseudovirus PV0 (HIV-1); remark: listed apart in the source
[25] = biological target: HIV-1 Env of pseudovirus ZM197 (HIV-1); remark: listed apart in the source
[26] = biological target: HIV-1 Env of pseudovirus X1632 (HIV-1); remark: listed apart in the source
[27] = biological target: HIV-1 Env of pseudovirus BG505 (HIV-1); remark: listed apart in the source
[28] = biological target: HIV-1 Env of pseudovirus SF162 (HIV-1) (UniProt P19550); remark: listed apart in the source

Substance | IC50, neutralization of X2088 PsV [1] | IC50, neutralization of Du422 PsV [2] | IC50, neutralization of T257 PsV [3] | IC50, neutralization of JRCSF PsV [4] | IC50, neutralization of 3817 PsV [5] | IC50, neutralization of ZM106 PsV [6] | IC50, neutralization of 278 PsV [7] | IC50, neutralization of THRO PsV [8] | IC50, neutralization of pCNE8 PsV [9] | IC50, neutralization of PV0 PsV [10] | IC50, neutralization of ZM197 PsV [11] | IC50, neutralization of X1632 PsV [12] | IC50, neutralization of BG505 PsV [13] | IC50, neutralization of SF162 PsV [14] | IC50, neutralization of X2088 PsV [15] | IC50, neutralization of Du422 PsV [16] | IC50, neutralization of T257 PsV [17] | IC50, neutralization of JRCSF PsV [18] | IC50, neutralization of 3817 PsV [19] | IC50, neutralization of ZM106 PsV [20] | further results
N6/PGDM1400x10E8v4 trispecific antibody | 3.2 nM | 1.1 nM | 0.16 nM | 0.15 nM | 6.7 nM | 0.1 nM | 7.1 nM | 1.7 nM | 0.14 nM | 7.2 nM | 0.42 nM | 0.17 nM | 0.34 nM | 1.9 nM | 0.56 µg/mL | 0.19 µg/mL | 0.028 µg/mL | 0.026 µg/mL | 1.2 µg/mL | 0.017 µg/mL | IC50, neutralization of 278 PsV [21]: 1.2 µg/mL; IC50, neutralization of THRO PsV [22]: 0.31 µg/mL; IC50, neutralization of pCNE8 PsV [23]: 0.024 µg/mL; IC50, neutralization of PV0 PsV [24]: 1.3 µg/mL; IC50, neutralization of ZM197 PsV [25]: 0.073 µg/mL; IC50, neutralization of X1632 PsV [26]: 0.03 µg/mL; IC50, neutralization of BG505 PsV [27]: 0.059 µg/mL; IC50, neutralization of SF162 PsV [28]: 0.33 µg/mL
N49P7 IgG (antibody) | 2.5 nM | 66 nM | 8.3 nM | 0.85 nM | 22 nM | 1.2 nM | > 100 nM | 50 nM | 1.8 nM | 1.9 nM | 3.9 nM | > 100 nM | 1.4 nM | 1 nM | 0.38 µg/mL | 10 µg/mL | 1.2 µg/mL | 0.12 µg/mL | 3.3 µg/mL | 0.18 µg/mL | IC50, neutralization of 278 PsV [21]: > 50 µg/mL; IC50, neutralization of THRO PsV [22]: 7.5 µg/mL; IC50, neutralization of pCNE8 PsV [23]: 0.28 µg/mL; IC50, neutralization of PV0 PsV [24]: 0.28 µg/mL; IC50, neutralization of ZM197 PsV [25]: 0.58 µg/mL; IC50, neutralization of X1632 PsV [26]: > 50 µg/mL; IC50, neutralization of BG505 PsV [27]: 0.21 µg/mL; IC50, neutralization of SF162 PsV [28]: 0.15 µg/mL
PGDM1400 IgG (antibody) | > 100 nM | 40 nM | 0.08 nM | 0.049 nM | > 100 nM | 0.084 nM | 1.1 nM | 0.61 nM | 18 pM | 8.4 nM | 0.68 nM | 0.12 nM | 0.02 nM | > 100 nM | > 50 µg/mL | 6 µg/mL | 0.012 µg/mL | 0.0074 µg/mL | > 50 µg/mL | 0.013 µg/mL | IC50, neutralization of 278 PsV [21]: 0.16 µg/mL; IC50, neutralization of THRO PsV [22]: 0.09 µg/mL; IC50, neutralization of pCNE8 PsV [23]: 0.0027 µg/mL; IC50, neutralization of PV0 PsV [24]: 1.3 µg/mL; IC50, neutralization of ZM197 PsV [25]: 0.11 µg/mL; IC50, neutralization of X1632 PsV [26]: 0.018 µg/mL; IC50, neutralization of BG505 PsV [27]: 0.0032 µg/mL; IC50, neutralization of SF162 PsV [28]: > 50 µg/mL
